Data taken from paper PMC2736567.

Molecular target: endogenous GRB2 (human (endogenous in HEK-293T)) (UniProt P62993)
UniProt P62993, sequence (P62993 whole entry): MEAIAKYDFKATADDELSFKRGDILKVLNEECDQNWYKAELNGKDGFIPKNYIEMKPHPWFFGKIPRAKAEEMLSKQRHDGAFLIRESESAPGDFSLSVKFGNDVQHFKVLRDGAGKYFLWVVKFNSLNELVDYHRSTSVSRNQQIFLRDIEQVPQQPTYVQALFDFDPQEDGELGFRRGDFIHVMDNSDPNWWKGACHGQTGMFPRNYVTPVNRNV

GST-tagged hPIV3-C (full-length) (from UniProt P06165 1-199) (natural protein)
Elk1 trans-reporter after EGF in HEK-293T expressing hPIV3-C without a tag: 14 fold
